We go through 4 molecules from paper PMC2955897 (Journal of immunology (Baltimore, Md. : 1950), 2009).

Changes are numbered by the printed parent chain. Read-outs that look alike come from different tables or passages of the source.

For orientation: Ki means a measure of affinity in units of concentration, obtained from inhibition or displacement. The low end stands for higher affinity, the high end for lower affinity. By Kd is commonly meant the concentration at which binding is half-saturated.

Holding throughout (assay): flow cytometry on cells
Assay [1] has as its target T1, Toll-like receptor 4 (mouse (endogenous in TG-elicited …, UniProt Q9QUK6 26-835)).
T1 sequence (looked up): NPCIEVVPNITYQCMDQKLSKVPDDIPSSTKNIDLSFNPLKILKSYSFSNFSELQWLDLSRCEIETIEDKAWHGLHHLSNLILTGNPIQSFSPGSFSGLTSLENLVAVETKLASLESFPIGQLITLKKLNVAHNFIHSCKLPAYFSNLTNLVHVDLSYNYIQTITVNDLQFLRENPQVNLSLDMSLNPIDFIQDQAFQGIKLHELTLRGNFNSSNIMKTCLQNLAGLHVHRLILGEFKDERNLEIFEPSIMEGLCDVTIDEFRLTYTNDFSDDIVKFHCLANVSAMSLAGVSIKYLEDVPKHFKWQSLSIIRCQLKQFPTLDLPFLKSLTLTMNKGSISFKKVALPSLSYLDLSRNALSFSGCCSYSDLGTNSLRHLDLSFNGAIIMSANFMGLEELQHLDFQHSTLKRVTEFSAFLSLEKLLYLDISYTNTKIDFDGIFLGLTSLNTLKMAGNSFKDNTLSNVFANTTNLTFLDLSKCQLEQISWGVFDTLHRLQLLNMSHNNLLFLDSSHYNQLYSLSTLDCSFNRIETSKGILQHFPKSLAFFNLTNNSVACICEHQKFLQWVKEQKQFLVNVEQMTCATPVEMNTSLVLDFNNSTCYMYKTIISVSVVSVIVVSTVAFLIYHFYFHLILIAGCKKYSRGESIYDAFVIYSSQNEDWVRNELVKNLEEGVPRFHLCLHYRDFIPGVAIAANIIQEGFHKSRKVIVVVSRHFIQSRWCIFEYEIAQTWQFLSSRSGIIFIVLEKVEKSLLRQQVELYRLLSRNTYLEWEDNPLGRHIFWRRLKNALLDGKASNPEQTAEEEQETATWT

In assay [2] the target is T1, Toll-like receptor 4. The source holds these as a separate data set.
Assay [3] has as its target T1, Toll-like receptor 4. The source holds these as a separate data set.

B1: Peroxiredoxin 1 (recombinant human Prx1, unlabeled) (natural protein, UniProt Q06830 1-199, looked up)
chain: MSSGNAKIGHPAPNFKATAVMPDGQFKDISLSDYKGKYVVFFFYPLDFTFVCPTEIIAFSDRAEEFKKLNCQVIGASVDSHFCHLAWVNTPKKQGGLGPMNIPLVSDPKRTIAQDYGVLKADEGISFRGLFIIDDKGILRQITVNDLPVGRSVDETLRLVQAFQFTDKHGEVCPAGWKPGSDTIKPDVQKSKEYFSKQK
B1 returned a Ki with Toll-like receptor 4 [1] of 4100 µM.

B2: FITC-conjugated Prx1 (recombinant human) (natural protein, UniProt Q06830 1-199, looked up)
chain: B1 chain
modifications: FITC conjugated (FITC conjugation kit, Sigma; residues not stated)
On to B2, for which the equilibrium dissociation constant (Kd) is ~1300 µM in the assay with Toll-like receptor 4 [2] and 1600 µM in the assay with Toll-like receptor 4 [3].

B3: Prx1C52S (recombinant human, unlabeled) (natural protein, UniProt Q06830 1-199, looked up)
chain: B1 chain with C52S
Regarding B3, the Ki with Toll-like receptor 4 [1] turned out to be 5200 µM.

B4: FITC-conjugated Prx1C52S (recombinant human) (natural protein, UniProt Q06830 1-199, looked up)
chain: B1 chain with C52S
modifications: FITC conjugated (FITC conjugation kit, Sigma; residues not stated)
As for B4, the Kd in the assay with Toll-like receptor 4 [3] amounted to 2500 µM.
